Molecular target: T1, GST-CCA1 (Arabidopsis thaliana, UniProt P92973 1-608)
T1 construct: Immobilized on glutathione-agarose beads; also called pGEX-CCA1 product; not shown: glutathione-S-transferase (GST) of pGEX-3X (Pharmacia)
Experiment: GST pull-down of 35S-labeled in vitro translated protein, SDS-PAGE autoradiography
Description: CK2 subunits and GBF4 labeled with [^35S]methionine were synthesized by coupled transcription-translation with wheat germ extract (Promega TNT). For in vitro binding, 20 µl of the reactions were added to 200 µl of binding buffer [20 mM Hepes pH 7.6, 100 mM KCl, 10% glycerol, 5 mM EDTA, 0.02% NP40, 1 mM dithiothreitol (DTT), 5 mg/ml bovine serum albumin (BSA)] followed by 10 µl of glutathione-agarose beads with bound GST or GST-CCA1 and incubated at 4° C. The beads were washed with binding buffer, then with binding buffer without BSA. Bound proteins were eluted with 1X SDS-polyacrylamide gel electrophoresis (PAGE) sample buffer and resolved by 12.5% SDS-PAGE. ^35S-labeled bands were detected by autoradiography, and quantitation was performed with a PhosphorImager (Molecular Dynamics).

T1 sequence (P92973 whole entry): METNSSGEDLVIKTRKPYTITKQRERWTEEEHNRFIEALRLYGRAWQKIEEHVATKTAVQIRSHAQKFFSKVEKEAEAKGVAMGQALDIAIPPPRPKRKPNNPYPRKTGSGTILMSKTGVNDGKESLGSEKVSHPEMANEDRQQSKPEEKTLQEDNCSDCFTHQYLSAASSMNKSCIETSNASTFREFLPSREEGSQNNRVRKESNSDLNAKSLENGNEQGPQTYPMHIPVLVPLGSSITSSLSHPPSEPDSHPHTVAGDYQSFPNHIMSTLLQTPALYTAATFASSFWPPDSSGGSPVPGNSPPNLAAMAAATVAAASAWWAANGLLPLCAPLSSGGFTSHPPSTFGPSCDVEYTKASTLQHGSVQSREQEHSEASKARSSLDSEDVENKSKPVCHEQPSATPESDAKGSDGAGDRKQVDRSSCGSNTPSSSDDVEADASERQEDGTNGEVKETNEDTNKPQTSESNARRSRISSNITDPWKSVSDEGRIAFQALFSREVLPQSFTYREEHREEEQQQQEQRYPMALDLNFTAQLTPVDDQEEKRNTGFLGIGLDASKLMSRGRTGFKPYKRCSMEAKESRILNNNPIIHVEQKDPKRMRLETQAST

B1: GBF4, a bZIP transcription factor (35S-labeled, in vitro translated) (other, UniProt P42777 1-270, looked up)
chain: MASFKLMSSSNSDLSRRNSSSASSSPSIRSSHHLRPNPHADHSRISFAYGGGVNDYTFASDSKPFEMAIDVDRSIGDRNSVNNGKSVDDVWKEIVSGEQKTIMMKEEEPEDIMTLEDFLAKAEMDEGASDEIDVKIPTERLNNDGSYTFDFPMQRHSSFQMVEGSMGGGVTRGKRGRVMMEAMDKAAAQRQKRMIKNRESAARSRERKQAYQVELETLAAKLEEENEQLLKEIEESTKERYKKLMEVLIPVDEKPRPPSRPLSRSHSLEW
modifications: [35S]methionine label
notes: Negative control
  binding result: no binding

Reference: patent US6727407 (University of California, dated 2004)
